Laboratory results: US20160090416A1 (NUMAB, published 2016)

biological target: T1, human CD3ε expressed on the cell surface of T cells (Jurkat clone E6-1; human CD8+ T cells) (human, UniProt P07766 23-207); assay: cell-based or functional assay
T1 sequence (P07766 23-207): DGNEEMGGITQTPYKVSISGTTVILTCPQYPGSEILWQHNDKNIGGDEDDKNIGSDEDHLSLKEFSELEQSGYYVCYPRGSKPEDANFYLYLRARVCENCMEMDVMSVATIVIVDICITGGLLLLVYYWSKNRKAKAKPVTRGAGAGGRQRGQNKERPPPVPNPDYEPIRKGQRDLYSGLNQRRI

Molecule | Potency to lyse target cells [EC50] (CHO-IL5R cells, human CD8+ T cells, 88 h) [nM] | Potency to stimulate IL-2 secretion by T cells [EC50] (CD8+ T cells with CHO-IL5R cells, 16 h) [nM]
Construct 1 (anti-CD3×anti-IL5R scDb comprising the humanized variable domain of clone-06) (bispecific antibody) DIQMTQSPSSLSASVGDRVTITCQASQNIYSNLAWYQQKPGKAPKLLIYRASTLASGVPSRFSGSGSGTDFTLTISSLQPEDFATYYCQSNYGINYYGAAFGQGTKLTVLGGGGGSEVQLVESGGGLVQPGGSLRLSCAASGFPLSSYAMIWVRQAPGKGLEWIGMILRAGNIYYASWVKGRFTISRDNSKNTVYLQMNSLRAEDTAVYYCARRHYNREGYPIGIGDLWGQGTLVTVSSGGGGSGGGGSGGGGSGGGGSDIQMTQSPSSLSASVGDRVTITCQSSESVYNNKRLSWYQQKPGKAPKLLIYTASSLASGVPSRFSGSGSGTDFTLTISSLQPEDFATYYCQGEFTCSNADCFTFGQGTKLTVLGGGGGSEVQLVESGGGLVQPGGSLRLSCAASGFSLSSYDMTWVRQAPGKGLEWIGIIYVSGSAYYASWAKGRFTISRDNSKNTVYLQMNSLRAEDTAVYYCARINYGLDLWGQGTLVTVSS | 0.1 | 0.96
Construct 2 (anti-CD3×anti-IL5R scDb comprising the humanized variable domain of clone-02) (bispecific antibody) DIQMTQSPSSLSASVGDRVTITCQASQNIYSNLAWYQQKPGKAPKLLIYRASTLASGVPSRFSGSGSGTDFTLTISSLQPEDFATYYCQSNYGINYYGAAFGQGTKLTVLGGGGGSEVQLVESGGGLVQPGGSLRLSCAASGFPLSAYAMIWVRQAPGKGLEWIGMIIRSGTVYYANWAKGRFTISRDNSKNTVYLQMNSLRAEDTAVYYCARRHYNADGYPIGIGDLWGQGTLVTVSSGGGGSGGGGSGGGGSGGGGSDIQMTQSPSSLSASVGDRVTITCQSSESVYSNNRLSWYQQKPGKAPKLLIYSASTLASGVPSRFSGSGSGTDFTLTISSLQPEDFATYYCQGEFSCSSVDCFSFGQGTKLTVLGGGGGSEVQLVESGGGLVQPGGSLRLSCAASGFSLSSYDMTWVRQAPGKGLEWIGIIYVSGSAYYASWAKGRFTISRDNSKNTVYLQMNSLRAEDTAVYYCARINYGLDLWGQGTLVTVSS |  | 5.67

biological target: T2, human heterodimeric single-chain CD3εγ extracellular domain (human, UniProt P07766 23-126; P09693 23-116); assay: SPR (MASS-1), human scCD3εγ ECD immobilized, scDb injected
T2 construct: extracellular domain; Produced in-house; single-chain protein of the extracellular domains of CD3ε and CD3γ joined by a flexible linker; also called scCD3γε; human CD3ge
T2 sequence (P07766 23-126, chain 1 of 2): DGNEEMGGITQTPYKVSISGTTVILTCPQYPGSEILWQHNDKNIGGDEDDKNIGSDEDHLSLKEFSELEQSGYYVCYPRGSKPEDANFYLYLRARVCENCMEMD
T2 sequence (P09693 23-116, chain 2 of 2): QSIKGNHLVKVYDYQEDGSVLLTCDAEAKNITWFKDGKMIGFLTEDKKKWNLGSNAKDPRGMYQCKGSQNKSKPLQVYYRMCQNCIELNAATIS

Molecule | Kd [nM]
Construct 1 (anti-CD3×anti-IL5R scDb comprising the humanized variable domain of clone-06) (bispecific antibody) DIQMTQSPSSLSASVGDRVTITCQASQNIYSNLAWYQQKPGKAPKLLIYRASTLASGVPSRFSGSGSGTDFTLTISSLQPEDFATYYCQSNYGINYYGAAFGQGTKLTVLGGGGGSEVQLVESGGGLVQPGGSLRLSCAASGFPLSSYAMIWVRQAPGKGLEWIGMILRAGNIYYASWVKGRFTISRDNSKNTVYLQMNSLRAEDTAVYYCARRHYNREGYPIGIGDLWGQGTLVTVSSGGGGSGGGGSGGGGSGGGGSDIQMTQSPSSLSASVGDRVTITCQSSESVYNNKRLSWYQQKPGKAPKLLIYTASSLASGVPSRFSGSGSGTDFTLTISSLQPEDFATYYCQGEFTCSNADCFTFGQGTKLTVLGGGGGSEVQLVESGGGLVQPGGSLRLSCAASGFSLSSYDMTWVRQAPGKGLEWIGIIYVSGSAYYASWAKGRFTISRDNSKNTVYLQMNSLRAEDTAVYYCARINYGLDLWGQGTLVTVSS | 11.5
Construct 2 (anti-CD3×anti-IL5R scDb comprising the humanized variable domain of clone-02) (bispecific antibody) DIQMTQSPSSLSASVGDRVTITCQASQNIYSNLAWYQQKPGKAPKLLIYRASTLASGVPSRFSGSGSGTDFTLTISSLQPEDFATYYCQSNYGINYYGAAFGQGTKLTVLGGGGGSEVQLVESGGGLVQPGGSLRLSCAASGFPLSAYAMIWVRQAPGKGLEWIGMIIRSGTVYYANWAKGRFTISRDNSKNTVYLQMNSLRAEDTAVYYCARRHYNADGYPIGIGDLWGQGTLVTVSSGGGGSGGGGSGGGGSGGGGSDIQMTQSPSSLSASVGDRVTITCQSSESVYSNNRLSWYQQKPGKAPKLLIYSASTLASGVPSRFSGSGSGTDFTLTISSLQPEDFATYYCQGEFSCSSVDCFSFGQGTKLTVLGGGGGSEVQLVESGGGLVQPGGSLRLSCAASGFSLSSYDMTWVRQAPGKGLEWIGIIYVSGSAYYASWAKGRFTISRDNSKNTVYLQMNSLRAEDTAVYYCARINYGLDLWGQGTLVTVSS | 29.6
Construct 3 (anti-CD3×anti-IL5R scDb comprising the humanized variable domain of clone-03) (bispecific antibody) DIQMTQSPSSLSASVGDRVTITCQASQNIYSNLAWYQQKPGKAPKLLIYRASTLASGVPSRFSGSGSGTDFTLTISSLQPEDFATYYCQSNYGINYYGAAFGQGTKLTVLGGGGGSEVQLVESGGGLVQPGGSLRLSCAVSGFPLNRYAMLWVRQAPGKGLEWIGLITRADKKYYASWAKGRFTISKDNSKNTVYLQMNSLRAEDTAVYYCARRHYNTDGYPIAIGDLWGQGTLVTVSSGGGGSGGGGSGGGGSGGGGSDIQMTQSPSSLSASVGDRVTISCQSNENIYSNNRLSWYQQKPGKAPKLLIYSASSLASGVPSRFSGSGSGTDFTLTISDLEPEDFATYYCQGEFNCNSADCFTFGQGTKLTVLGGGGGSEVQLVESGGGLVQPGGSLRLSCAASGFSLSSYDMTWVRQAPGKGLEWIGIIYVSGSAYYASWAKGRFTISRDNSKNTVYLQMNSLRAEDTAVYYCARINYGLDLWGQGTLVTVSS | 123

biological target: human CD3ε expressed on the cell surface of T cells (Jurkat clone E6-1; human CD8+ T cells) (human) (UniProt P07766); assay: cell-based or functional assay
Sequence (P07766 23-207): as the sequence (P07766 23-207) above

Molecule | Fold increase in CD69 expression [MFI normalized to neg. ctrl.], 1.25 µg/ml anti-CD3 IgG, cross-linked, Jurkat cells, 24 h [fold] | Fold increase in CD69 expression [MFI normalized to neg. ctrl.], 5 µg/ml anti-CD3 IgG, cross-linked, Jurkat cells, 24 h [fold] | Fold increase in CD69 expression [MFI normalized to neg. ctrl.], 20 µg/ml anti-CD3 IgG, cross-linked, Jurkat cells, 24 h [fold]
OKT3 (antibody) | 1.8 | 2.5 | 3.1
TR66 (antibody) | 1.6 | 2.2 | 3

biological target: T1, human CD3ε expressed on the cell …; assay: cell-based or functional assay; remark: another data set of the same source

Molecule | Fold increase in CD69 expression [MFI normalized to neg. ctrl.], 1.25 µg/ml anti-CD3 IgG, cross-linked, Jurkat cells, 24 h [fold] | Fold increase in CD69 expression [MFI normalized to neg. ctrl.], 5 µg/ml anti-CD3 IgG, cross-linked, Jurkat cells, 24 h [fold] | Fold increase in CD69 expression [MFI normalized to neg. ctrl.], 20 µg/ml anti-CD3 IgG, cross-linked, Jurkat cells, 24 h [fold]
clone-02 (antibody, V domains shown) VH: QSLEESGGRLVTPGTPLTLTCTVSGFPLSAYAMIWVRQAPGKGLEWIGMIIRSGTVYYANWAKGRFTISKTSTTVDLKITSPTTEDTATYFCARRHYNADGYPIGIGDLWGPGTLVTVSS VL: AQVLTQTPSSVSAVVGGTVTISCQSSESVYSNNRLSWFQQKPGQPPKLLIYSASTLASGVPSRFKGSGSGTQFTLTITDLECDDAATYFCQGEFSCSSVDCFSFGGGTEVVVKG | 3.3 | 4.6 | 7.4
clone-06 (antibody, V domains shown) VH: QSVEESGGRLVTPGTPLTLTCTVSGFPLSSYAMIWVRQAPGKGLEWIGMILRAGNIYYASWVKGRVTISKTSTTVDLKITSPTTEDTATYFCARRHYNREGYPIGIGDLWGPGTLVTVSS VL: AQVLTQTPSSVSAAVGGTVTISCQSSESVYNNKRLSWFQQKPGQPPKQLIYTASSLASGVPSRFKGSGSGTQFTLTISDLECDDAATYYCQGEFTCSNADCFTFGGGTEVVVKG | 2.7 | 5.1 | 5.3
clone-10 (antibody, V domains shown) VH: QSLEESGGRLVTPGTPLTLTCTVSGFPLSSFAMLWVRQAPGKGLEWIGMIMRAHNMYYASWAKGRFTISKTSTTVDLEITSPTTEDTATYFCARRHYNTYGYPIAIGDLWGPGTLVTVSS VL: AQVLTQTPSSVSAAVGGTATISCQSNENIYSNNRLSWFQQKAGQPPNQLIYSASSLASGVPSRFKGSGSGTQFTLTISDLECDDAATYYCQGEFSCSSADCFTFGGGTEVVVKG | 2.6 | 4.2 | 6.2
clone-03 (antibody, V domains shown) VH: QSLEESGGRLVTPGTPLTLTCTVSGFPLNRYAMLWVRQAPGKGLEWIGLITRADKKYYASWAKGRFTISKTSTTVDLEITGPTTEDTATYFCARRHYNTDGYPIAIGDLWGPGTLVTVSS VL: AQVLTQTPSSVSAAVGGTVTISCQSNENIYSNNRLSWFQQKPGQPPNQLIYSASSLASGVPSRFKGSGSGTQFTLTISDLECDDAATYYCQGEFNCNSADCFTFGGGTEVVVKG | 2.6 | 4.6 | 6.6
clone-04 (antibody, V domains shown) VH: QSLEESGGRLVKPDETLTLTCTVSGFPLSSYAMGWFRQAPGKGLEWIGMILRSDNTYYASWAKGRFTISKTSTTVDLKITSPTTEDTATYFCARRHYNASGNPIAIGDLWGPGTLVTVSS VL: AQVLTQTPSSVSAAVGGTVTINCQSSQSVYNNNRLSWFQQKPGQPPKLLIYTTSSLASGVPSRFKGSGSGTEFTLTISDLECADAATYYCQGEFSCSRADCFNFGGGTEVVVKG | 2.6 | 3.5 | 7.8
